Nine molecules from US20180016324A1 (Regeneron, published 2018) can be followed below.

Assay [1] concerns the target ZIKV envelope glycoprotein (E) of strain FLR (Colombia 2015) (Zika virus). Nature of the assay: cell-based or functional assay.
Assay [2] has as its target ZIKV envelope glycoprotein (E) of strain MR766 (Uganda 1947) (Zika virus, UniProt Q32ZE1 291-790). Nature of the assay: cell-based or functional assay.
In assay [3] the target is ZIKV envelope glycoprotein (E) of strain PRVABC59 (Puerto Rico 2015) (Zika virus). Description: cell-based or functional assay.
The target of assay [4] is T1, ZIKV prM/E polyprotein on virus-like particles (VLPs) from HEK293T/17 cells (Zika virus, UniProt A0A024B7W1 123-795).
T1 construct: also called ZIKV prM/E VLPs; Zika prM/E VLPs
Description: MSD ECL, VLPs on plate.

Assay [5] deals with T2, ZIKV (prM80E) with a C-terminal myc-myc-hexahistidine tag (Zika virus, UniProt A0A024B7W1 104-694).
T2 construct: also called ZIKV (prM80E)-mmH; ZIKV-mmH
Nature of the assay: SPR, mAb captured, 25C. A general note: In SPR one partner is held on a chip, and binding of the other changes the refractive index at the surface.

Assay [6] addresses T2, ZIKV (prM80E) with a C-terminal …. Description: SPR, mAb captured, 37C.
Assay [7] shares this target. Description: SPR, mAb captured, 37C. This is another data set of the same source.
Assay [8] has the same target. Nature of the assay: SPR, mAb captured, 37C, pH 6.0 chase.
Assay [9] has the same target. Nature of the assay: SPR, mAb captured, 37C, pH 7.4.
For assay [10] the target is unchanged. Nature of the assay: SPR, mAb captured, 37C. The source holds these as a separate data set.
The target is the same in assay [11]. Nature of the assay: SPR, mAb captured, 37C, pH 5.5 chase.
Assay [12] has the same target. Nature of the assay: SPR, mAb captured, 37C, pH 5.0 chase.

Positions count from the first letter of the chain named.

B1: H4H25633P (antibody, V domains shown)
VH: EVQLVESGGGLVQPGRSLRLSCAASGFTFDDYAIHWVRQAPGKGLEWVSGISWNSGYLGYADSVKGRFTISRDNAKNSLYLQMNSLRAEDTAFYYCAKDVAWGSVRHVFEIWGQGTMVTVSS
VL: EIVLTQSPGTLSLSPGERATLSCRASQTITGNQLAWYQQKPGQAPRLLIYFTSSRATGIPDRFSGSGSGTDFSLTISRLEPEDFAVYFCQQFGYSPWTFGQGTKVEIK
What is called EC50 is the concentration at which the effect is half-maximal. Higher therefore signals a less potent agent. Broadly, the Kd is the concentration at which binding is half-saturated. Lower therefore signals a tighter complex. A word on the koff: it is the rate constant with which the complex falls apart. A lower koff goes with a long-lived complex. Usually kon stands for the second-order rate constant of association. Low readings indicate slower complex formation, high ones faster complex formation. The term t½ denotes how long it takes for the measured level to halve. A low value points to rapid decline. Consider B1, for which the “neutralization IC50, Vero cells” value in assay [1] amounted to 0.44 nM. Further, the “neutralization IC50, Vero cells” value in [2] stood at 0.102 nM. In assay [3], the “neutralization IC50, Vero cells” value is 0.652 nM. In addition, in assay [4], the midpoint of the response, the EC50, lay at 0.4 nM. In assay [5], this molecule displayed a Kd of 1.95 nM, a dissociation rate constant (koff) of 0.000802 s⁻¹, an on-rate (kon) of 411000 M⁻¹ s⁻¹ and a t½ of 14.4 min. In addition, in assay [6], the Kd turned out to be 7.39 nM, the off-rate constant (koff) turned out to be 0.00501 s⁻¹, the kon was found to be 678000 M⁻¹ s⁻¹ and the t½ amounted to 2.3 min.

B2: H4H25587P (antibody, V domains shown)
VH: EVQLVESGGGLVQPGRSLTLSCAASGFTFDDYVMHWVRQAPGKGLEWVSGISWNSDTIDYADSVKGRFTISRDNAKNSLYLQMNSLRAEDTALYYCAKDRRSWYGGYFDYWGQGTLVTVSS
VL: DIQMTQSPSSLSASVGDRVTITCRASQGISSYLAWYQQKPGKVPKLLIYAASTLQSGVPSRFSGSGSGTDFSLTISSLQPEDVATYYCQKYNSAPLTFGGGTKVEIK
Take B2: in assay [7], the “t½ pH 7.4/t½ pH 6.0” value turned out to be 0.8. For the same molecule, the off-rate constant (koff) in assay [8] is 0.0151 s⁻¹; in assay [9], 0.018 s⁻¹; in [11], 0.0174 s⁻¹; in assay [12], 0.0177 s⁻¹; in assay [5] it was 0.00422 s⁻¹; in assay [6], 0.0145 s⁻¹. Also, the t½ in assay [8] is 0.77 min; in assay [9], 0.64 min; in [11], 0.66 min; in [12], 0.7 min; in [5], 2.7 min; in assay [6], 0.8 min. Also, the entries for the “neutralization IC50, Vero cells” value in [1], in assay [2] and in [3] were 0.955 nM, 0.15 nM and 0.321 nM, respectively. In [4], this molecule returned an EC50 of 0.145 nM. Further, the “t½ pH 7.4/t½ pH 5.0” value in assay [10] was found to be 1. Moreover, the “t½ pH 7.4/t½ pH 5.5” value in assay [10] was 1. The Kd came to 5.13 nM in assay [5] and 13.2 nM in assay [6]. Also, the results for the kon in [5] and in assay [6] were 822000 M⁻¹ s⁻¹ and 1.1e+06 M⁻¹ s⁻¹, respectively.

B3: H4H25566P (antibody, V domains shown)
VH: QVQLQESGPGLVKPSQTLSLTCTVSGGSISSGGYYWSWIRQHPGKGLEWIGYIYYSGSTYYNPSLKSRITISIDTSKNQFSLKLTSVTAADTAVYYCARGQQLLSFDYWGQGTLVTVSS
VL: DIQMTQSPSSVSASVGDRVTITCRASQGISRWLAWYQLKPGKPPTPLIYAASSLQSGAPSRFSGRGSGTDFTLTISSLQPEDFATYYCQQANSFPYTFGQGTKLEIK
In the case of B3, the “t½ pH 7.4/t½ pH 6.0” value in assay [7] stood at 5.5. The koff in [8] came to 0.299 s⁻¹; in [9] it was 0.0542 s⁻¹; in [11] it was 0.392 s⁻¹; in assay [12], 0.368 s⁻¹; in assay [5], 0.0163 s⁻¹; in assay [6] it was 0.036 s⁻¹. Also, the t½ in [8] was determined as 0.04 min; in assay [9] it was 0.21 min; in [11] it was 0.03 min; in assay [12] it was 0.03 min; in assay [5] it was 0.7 min; in assay [6] it was 0.3 min. Also, the “neutralization IC50, Vero cells” value in [1] is 1.55 nM. The EC50 in assay [4] came to 0.82 nM. For the same molecule, in [10], the “t½ pH 7.4/t½ pH 5.0” value was determined as 6.8. Moreover, the “t½ pH 7.4/t½ pH 5.5” value in [10] was 7.2. The results for the Kd in assay [5] and in [6] were 27.7 nM and 52.5 nM, respectively. In addition, the kon in assay [5] stood at 590000 M⁻¹ s⁻¹; in assay [6], 687000 M⁻¹ s⁻¹.

B4: H4H25630P (antibody, V domains shown)
VH: QVQLVQSGAEVKRPGASVKVSCKASDYTFTDYGISWVRQAPGQGLEWMGWFNTYNGNTNYAQKFQGRITMTTDTSTSTAYMELRSLRSDDTAIYYCARDWGLHYFENWGQGTLVTVSS
VL: EIVLTQSPGTLSLSPGERATLSCRASQSVRNSYLAWYQQKPGQAPRLLIYGASSRDTGIPDRFSGSGSGTDFTLTISRLEPEDFAVYYCQQYGRSPWTFGQGTKVEIK
For B4, in assay [1], the “neutralization IC50, Vero cells” value is 0.283 nM. In assay [2], the “neutralization IC50, Vero cells” value turned out to be 0.147 nM. The “neutralization IC50, Vero cells” value in assay [3] was determined as 0.539 nM. This molecule came in with a concentration giving a half-maximal response (EC50) in assay [4] of 0.217 nM. In [5], this molecule displayed a Kd of 0.21 nM, a dissociation rate constant (koff) of 0.00035 s⁻¹, an on-rate (kon) of 1.67e+06 M⁻¹ s⁻¹ and a t½ of 33 min. Further, in assay [6], binding was characterised by a dissociation constant (Kd) of 1.16 nM, the koff came to 0.00229 s⁻¹, the on-rate constant (kon) turned out to be 1.98e+06 M⁻¹ s⁻¹ and the t½ came out at 5.1 min.

B5: H4H25708N (antibody, V domains shown)
VH: EVQLLESGGDLVQPGGSLRLSCAASGFTFSSYAMSWVRQAPGKGLEWVSAISVSGDSTYYADSVKGRFTISRDNSKNTLYLQMNSLRAEDTAVYYCAKDRGYTWNYYYYGMDVWGQGTTVTVSS
VL: not shown
Consider B5, for which the “t½ pH 7.4/t½ pH 6.0” value in [7] came out at 0.6. The koff was 0.00144 s⁻¹ in assay [8]; 0.0026 s⁻¹ in assay [9]; 0.00157 s⁻¹ in assay [11]; 0.00129 s⁻¹ in assay [12]; 0.000504 s⁻¹ in assay [5]; 0.00232 s⁻¹ in assay [6]. The t½ amounted to 8.02 min in [8]; 4.45 min in assay [9]; 7.37 min in assay [11]; 8.9 min in assay [12]; 22.9 min in assay [5]; 5 min in assay [6]. Besides, the “neutralization IC50, Vero cells” value in [2] was found to be 0.349 nM. Further, in [4], the EC50 was 133 nM. In addition, in [10], the “t½ pH 7.4/t½ pH 5.0” value is 0.5. Moreover, the “t½ pH 7.4/t½ pH 5.5” value in assay [10] came out at 0.6. Besides, the values for the Kd in [5] and in [6] were 1.21 nM and 2.97 nM, respectively. Also, the kon stood at 417000 M⁻¹ s⁻¹ in assay [5] and 781000 M⁻¹ s⁻¹ in [6].

B6: H4H25710N (antibody, V domains shown)
VH: EVQLLESGGGLVQPGGSLRLSCAASGFTVSNNYMSWVRQAPGKGLEWVSVIYSGGRTNYGDSVKGRFTISRDNSKNTLYLQMNSLRAEDTAVYYCARENYDFWSGDPYGWDVWGQGTTVTVSS
VL: DIQMTQSPSSLSASVGDRVTITCRASQDISNYLAWFQQKPGKAPKSLIYGASSLQRGVPSKFRGSGSGTDFTLTISSLQPEDFASYYCQQYNSYPYTFGQGTKLEIK
For the molecule B6, the “t½ pH 7.4/t½ pH 6.0” value in assay [7] was 24. Moreover, the koff worked out at 0.13 s⁻¹ in assay [8]; 0.00541 s⁻¹ in assay [9]; 0.181 s⁻¹ in assay [11]; 0.339 s⁻¹ in [12]; 0.00209 s⁻¹ in assay [5]; 0.0064 s⁻¹ in [6]. The t½ turned out to be 0.09 min in assay [8]; 2.14 min in assay [9]; 0.06 min in assay [11]; 0.03 min in [12]; 5.5 min in assay [5]; 1.8 min in assay [6]. The figures for the “neutralization IC50, Vero cells” value in assay [1], in [2] and in assay [3] were 1.06 nM, 0.0471 nM and 1.24 nM, respectively. The molecule also displayed a concentration for a half-maximal effect (EC50) in [4] of 0.542 nM. The “t½ pH 7.4/t½ pH 5.0” value in assay [10] worked out at 62.6. The “t½ pH 7.4/t½ pH 5.5” value in assay [10] amounted to 33.4. The dissociation constant (Kd) in assay [5] is 6.99 nM; in [6] it was 12.4 nM. In addition, the values for the on-rate constant (kon) in [5] and in assay [6] were 299000 M⁻¹ s⁻¹ and 519000 M⁻¹ s⁻¹, respectively.

B7: H2aM25711N (antibody, V domains shown)
VH: B6 VH with L5V, N31S
VL: B6 VL with R63S, S85T
B7: the EC50 in [4] was 0.468 nM.

B8: H2aM25709N (antibody, V domains shown)
VH: B6 VH with L5V, N31S
VL: B6 VL with R63S, S85T
Consider B8, for which the concentration for a half-maximal effect (EC50) in assay [4] was found to be 0.362 nM.

B9: H4H25626P (antibody, V domains shown)
VH: QVQLVESGGGVVQPGRSLRLSCAASGFTFSSYGMHWVRQAPGKGLEWVALIWYDGSDKHYVDSMKGRFTISRDNSKNTLYLQMNSLRADDTAVYYCARQAYYFYYGMDVWGQGTTVTVSS
VL: not shown
Regarding B9, the “neutralization IC50, Vero cells” value in [1] is 1.09 nM. For the same molecule, the “neutralization IC50, Vero cells” value in assay [2] came to 0.159 nM. The “neutralization IC50, Vero cells” value in assay [3] came out at 1.17 nM. For the same molecule, in [4], the concentration for a half-maximal effect (EC50) stood at 1.59 nM. Besides, in [5], the Kd is 6.17 nM, the off-rate constant (koff) came out at 0.000905 s⁻¹, the kon is 147000 M⁻¹ s⁻¹ and the t½ was 12.8 min. In [6], this molecule returned a Kd of 6.18 nM, a koff of 0.00187 s⁻¹, a kon of 303000 M⁻¹ s⁻¹ and a t½ of 6.2 min.
